Consider one protein from paper PMC4119840 (Biochimie, 2014).

This data set concerns the molecule itself. As to the kind of experiment: SEC.

Where “and” joins values, the source holds several entries; their conditions need not be identical. Identical values can stand only once.

B1: mouse Serum amyloid A 1.1 (SAA1.1), lipid-free (natural protein)
chain: GFFSFIGEAFQGAGDMWRAYTDMKEAGWKDGDKYFHARGNYDAAQRGPGGVWAAEKISDARESFQEFFGRGHEDTMADQEANRHGRSGKDPNYYRPPGLPAKY
B1: the “stoichiometry N” value is 12 and 4.
